One molecule from patent US20220177590A1 (REMEGEN, published 2022) can be followed below.

The target of assay [1] is T1, PD-L1 (Fc Tag) (human, UniProt Q9NZQ7 19-239, limits assumed).
T1 construct: also called human PD-L1; not shown: Fc tag
Nature of the assay: competition ELISA, PD-L1 (Fc Tag) coated, human PD-1 at a fixed concentration as the competing ligand, hAAG5D8 titrated. As for the experimental part: (§1) The ability of hAAG5D8 to compete with PD-1 to bind to PD-L1 was tested by ELISA. PD-L1 (Fc Tag) was diluted to 1 μg/mL with a coating buffer (6 mM Na₂CO₃, 14 mM NaHCO₃), and then added 100 μL to each well followed by overnight incubation at 4° C. The plate was then washed with PBST, and added with 250 μL of a blocking solution (3% BSA/PBST) to each well to block for 2 h at 25° C. Afterwards, the plate was washed with PBST and added with 50 μL of human PD-1 at a concentration of 6 μg/mL as well as 50 μL of a gradiently diluted hAAG5D8 solution (at a concentration of 8000 ng/mL, 2000 ng/mL, 500 ng/mL, 250 ng/mL, 125 ng/mL, 62.5 ng/mL, 31.25 ng/mL, 6.25 ng/mL, or 1.25 ng/mL) to each well followed by mixing well and incubation at 25° C. for 2 h. Next, the plate was washed with PBST and added with 100 μL of an enzyme-labeled secondary antibody (goat anti-human IgG-Fc-HRP diluted 1:5000) to each well, followed by incubation at 25° C. for 1 h. Finally, color development was performed and values were read at 450 nm. A four-parameter equation was used for curve fitting to calculate the EC₅₀ value.
(§2) Results and conclusions: EC₅₀ value and the competitive binding curve of hAAG5D8 competitively binding to human PD-L1 are shown in Table 8 and FIG. 2, respectively.

For assay [2], the target named is T2, human PD-L1 (R&D company), immobilized on Ni-NTA probe (human, UniProt Q9NZQ7 19-239).
T2 construct: Bought protein; also called PD-L1 solution; not shown: His tag only implied by capture on the Ni-NTA probe
T2 sequence (Q9NZQ7 19-239): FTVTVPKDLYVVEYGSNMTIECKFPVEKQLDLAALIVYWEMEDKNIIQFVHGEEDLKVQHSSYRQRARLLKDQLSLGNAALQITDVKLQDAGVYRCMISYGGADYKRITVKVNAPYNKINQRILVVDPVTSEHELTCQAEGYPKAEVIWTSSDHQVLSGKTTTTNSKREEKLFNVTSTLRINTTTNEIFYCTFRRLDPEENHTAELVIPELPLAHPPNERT
Nature of the assay: BLI, PD-L1 immobilized on Ni-NTA probe, hAAG5D8 at 100, 50 and 25 nM in solution. The protocol:
The affinity of hAAG5D8 to human PD-L1 was detected using biolayer interferometry (BLI). The wells in A-D columns 1, 3, and 5 of a black 96-well plate were added with a PBS solution as baseline 1, baseline 2 and a dissociation solution, respectively. The wells in column 2 were added with a PD-L1 solution (R&D company), in column 4 with a hAAG5D8 solution (The concentrations were as follows: 100 nM, 50 nM, 25 nM, and 0 nM), in column 10 with an imidazole solution, in column 11 with water, and in column 12 with a nickel sulfate solution. Ni-NTA probe (Fortebio) was employed in the experiment. First, the probe was dipped in A-D column 1 for 180 seconds to stabilize the baseline. The Ni-NTA probe was then dipped in A-D column 2 for 300 seconds to immobilize PD-L1 on the probe. The Ni-NTA probe was then dipped in A-D column 3 for 120 seconds to stabilize the baseline. The Ni-NTA probe was then dipped in A-D column 4 for 600 seconds to allow the binding of hAAG5D8 with a different concentration to the immobilized PD-L1 protein on the probe. The Ni-NTA probe was then dipped in A-D column 5 for 600 seconds to allow the antibody to dissociate spontaneously. Finally, the Ni-NTA probe was dipped in A-D columns 10, 11, and 12 successively to force the immobilized PD-L1 dissociating from the probe. […]

For assay [3], the target named is T1, PD-L1 (Fc Tag). The assay can be described thus: competition ELISA, PD-L1 (Fc Tag) coated, human PD-1 at 6 ug/mL as competitor, anti-human IgG-Fc-HRP detection. As for the experimental part:
as §1, §2

T1 sequence (Q9NZQ7 19-239 limits assumed): as the sequence (Q9NZQ7 19-239) above

B1: anti-PD-L1 humanized antibody hAAG5D8 (antibody, human IgG1, kappa, V domains shown)
VH: QVQLQESGPGLVKPSETLSLTCTVSGFSLSRYSVHWIRQPPGKGLEWLGMIWGVGTTDYNSALKSRLTISKDTSKNQFSLKLSSVTAADTAVYYCARNWGTADYFDYWGQGTTVTVSS
VL: DIVLTQSPASLAVSPGQRATITCRASKSVHTSGYSYMHWYQQKPGQPPKLLIYLASNLESGVPARFSGSGSGTDFTLTINPVEANDTANYYCQHSGELPYTFGGGTKVEIKR
notes: Humanized from murine mAAG5D8 on a human IgG1 framework; also called anti-PD-L1 antibody
For B1, the “IC50 (read off the curve)” value with PD-L1 (Fc Tag) [1] was approximately 0.1 µg/mL. For the same molecule, in assay [2], the affinity, expressed as Kd, was 0.0762 nM. Moreover, in the assay with PD-L1 (Fc Tag) [3], it took 0.716 nM to reach a half-maximal effect (EC50).
